Blank lines part the entries; values can stand above or below the binder they belong to.
Key:
Assay in all cases: cell-based or functional assay
[1] = target: T1, Chryseobacterium proteolyticum deamidase polypeptide, wildtype, with His-tag (Chryseobacterium proteolyticum, UniProt Q9AQQ8 136-320)
T1 sequence: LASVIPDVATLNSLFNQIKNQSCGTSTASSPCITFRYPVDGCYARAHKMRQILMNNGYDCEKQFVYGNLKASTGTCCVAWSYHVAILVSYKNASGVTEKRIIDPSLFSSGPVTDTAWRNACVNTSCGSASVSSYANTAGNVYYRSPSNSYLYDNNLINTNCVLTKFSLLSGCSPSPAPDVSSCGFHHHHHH

[2] = target: T2, Chryseobacterium defluvii deamidase polypeptide, wildtype, with His-tag (Chryseobacterium defluvii)
T2 chain: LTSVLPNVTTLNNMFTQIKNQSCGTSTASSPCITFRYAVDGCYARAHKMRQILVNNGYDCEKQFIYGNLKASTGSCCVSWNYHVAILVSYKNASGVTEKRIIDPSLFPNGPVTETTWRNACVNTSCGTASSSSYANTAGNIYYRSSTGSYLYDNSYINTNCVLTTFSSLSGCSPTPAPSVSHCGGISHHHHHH

[3] = target: T3, Chryseobacterium culicis deamidase polypeptide, wildtype, with His-tag (Chryseobacterium culicis)
T3 chain: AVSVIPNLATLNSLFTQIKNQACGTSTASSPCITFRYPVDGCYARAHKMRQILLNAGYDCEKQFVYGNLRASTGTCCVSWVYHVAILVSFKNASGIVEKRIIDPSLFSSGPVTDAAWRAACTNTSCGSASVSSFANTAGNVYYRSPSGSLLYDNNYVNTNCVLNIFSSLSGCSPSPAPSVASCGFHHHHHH

NanoDSF thermal unfolding temperature [1]: 87.3 ° C.
B1: Chryseobacterium proteolyticum propeptide, wildtype (other)
chain: NQEINGKEKLSVNDSKLKDFGKTVPVGIDEENGMIKVSFMLTAQFYEIKPTKENEQYIGMLRQAVKNESPVHIFLKPNSNEIGKVESASPEDVRYFKTILTKEVKEENRK

NanoDSF thermal unfolding temperature [2]: 89 ° C.
B2: Chryseobacterium defluvii propeptide, wildtype (other)
chain: ATNQDVVGKENTSNHVAARDFGKTVPVGINEENGTLKVSFILSAQFYEIKPSKENEEYISLIRQAIQNESPIHVFMKLNSNEIVKVEKGTEEDVKYFRSILTKEVKEENRK

NanoDSF thermal unfolding temperature [3]: 85.2 ° C.
B3: Chryseobacterium culicis propeptide, wildtype (other)
chain: NQDPNLVAKESNEIAMKDFGKTVPVGIEKEEGKFKVSFMVSAQPYHIKDSKENAGYISMIRQAVENETPVHIFLKTNTNEIAKVDKPTDDDIRYFKSVFTKEVKEENRK

Source: patent US20250215412A1 (NOVOZYMES A S, published 2025)
